Assay results: patent publication US20190127480A1

Biological target: human CD3 expressed on cells (Jurkat cells; human T-cells of PBMC) (human) (UniProt P09693)
Assay: cell-based or functional assay

Chain of human CD3 expressed on cells (Jurkat cells; human T-cells of PBMC) (human) (chain, as listed by the source, chain 1 of 4): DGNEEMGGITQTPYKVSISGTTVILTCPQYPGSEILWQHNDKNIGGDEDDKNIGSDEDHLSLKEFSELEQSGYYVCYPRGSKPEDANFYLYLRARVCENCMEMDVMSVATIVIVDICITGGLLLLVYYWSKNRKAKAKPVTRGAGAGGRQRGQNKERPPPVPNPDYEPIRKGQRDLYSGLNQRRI
Chain of human CD3 expressed on cells (Jurkat cells; human T-cells of PBMC) (human) (chain, as listed by the source, chain 2 of 4): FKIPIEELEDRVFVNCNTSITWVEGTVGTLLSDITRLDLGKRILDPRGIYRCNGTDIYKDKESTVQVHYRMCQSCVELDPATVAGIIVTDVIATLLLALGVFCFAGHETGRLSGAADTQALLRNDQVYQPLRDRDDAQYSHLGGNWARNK
Chain of human CD3 expressed on cells (Jurkat cells; human T-cells of PBMC) (human) (P09693 23-182, chain 3 of 4): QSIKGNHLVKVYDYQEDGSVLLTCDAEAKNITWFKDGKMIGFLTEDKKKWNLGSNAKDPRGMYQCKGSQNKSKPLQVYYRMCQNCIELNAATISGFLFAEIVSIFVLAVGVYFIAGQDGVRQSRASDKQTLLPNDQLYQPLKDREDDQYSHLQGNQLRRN
Chain of human CD3 expressed on cells (Jurkat cells; human T-cells of PBMC) (human) (P20963 22-164, chain 4 of 4): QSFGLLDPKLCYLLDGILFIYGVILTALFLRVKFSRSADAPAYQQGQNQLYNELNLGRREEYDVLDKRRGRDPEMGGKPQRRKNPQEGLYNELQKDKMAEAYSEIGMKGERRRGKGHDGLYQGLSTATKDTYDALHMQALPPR

B1: H1H5756B (antibody, human IgG1, V domains shown)
VH: EVQLVESGGGVVQPGRSLRLSCTASGFPFSRYGMHWVRQAPGKGLEWVTFIWYDGSNKYYADSAKGRFTITRDNSKNTVYLQMDSLRADDTAVYYCVRDQAALYYFDSWGQGTLVTVSS
VL: DIQMTQSPSSVSASVGDRVTITCRASQGISRWLAWYQQKPGKAPKLLISAASSLQSGVPSRFSGSGSGTDFTLTISGLQPEDFATYYCQKANSFPFTFGPGTKLEIKR
B1 gave a U937 Cytotoxicity Human T-cells of 76.9 pM.
